# In patent publication US20250340613A1 (JOINT STOCK COMPANY BIOCAD, published 2025):
# T1: hisOX40, Tumor necrosis factor receptor superfamily member 4 (Homo sapiens) aa 26-210 (Homo sapiens, UniProt P43489 26-210)
# T1 construct: range 26-210; The tag is put first only because the name begins with His; not shown: His tag as the name implies
# T1 sequence (looked up): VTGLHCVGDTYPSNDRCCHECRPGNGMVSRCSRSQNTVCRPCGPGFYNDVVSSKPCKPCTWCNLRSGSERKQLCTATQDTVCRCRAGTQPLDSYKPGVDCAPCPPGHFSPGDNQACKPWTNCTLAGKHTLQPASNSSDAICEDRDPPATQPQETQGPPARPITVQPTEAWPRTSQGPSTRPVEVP
# T2: C-Avi-His-TEVs-HSA_hBCMA, Tumor necrosis factor receptor superfamily member 17 (Homo sapiens) aa 1-54 (Homo sapiens, UniProt Q02223 1-54)
# T2 construct: range 1-54; not shown: Avi, His, TEV site and HSA parts as the name implies
# T2 sequence (looked up): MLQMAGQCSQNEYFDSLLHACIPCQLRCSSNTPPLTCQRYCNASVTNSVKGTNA
# T3: hAng2_H6F, Angiopoietin-2 (Homo sapiens) aa 19-496 (Homo sapiens, UniProt O15123 19-496)
# T3 construct: also called hAng-H6F; not shown: His and FLAG tags implied by the name 'H6F'
# T3 sequence: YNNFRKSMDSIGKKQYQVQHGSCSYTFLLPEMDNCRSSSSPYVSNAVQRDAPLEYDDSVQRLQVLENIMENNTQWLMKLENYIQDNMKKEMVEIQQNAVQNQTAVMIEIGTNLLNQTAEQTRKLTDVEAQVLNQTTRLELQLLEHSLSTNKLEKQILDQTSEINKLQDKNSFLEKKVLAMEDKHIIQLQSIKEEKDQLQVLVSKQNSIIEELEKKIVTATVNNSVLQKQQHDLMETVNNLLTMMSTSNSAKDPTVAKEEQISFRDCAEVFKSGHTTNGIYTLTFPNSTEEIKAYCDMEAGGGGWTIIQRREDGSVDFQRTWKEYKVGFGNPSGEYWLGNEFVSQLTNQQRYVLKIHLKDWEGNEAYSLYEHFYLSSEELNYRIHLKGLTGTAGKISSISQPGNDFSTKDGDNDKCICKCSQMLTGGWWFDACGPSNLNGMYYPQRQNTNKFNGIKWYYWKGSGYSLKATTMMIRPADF
# T4: IL5R-His, Interleukin-5 receptor subunit alpha (Homo sapiens) aa 22-342 (Homo sapiens, UniProt Q01344 22-342)
# T4 construct: not shown: His tag as the name implies
# T4 sequence (looked up): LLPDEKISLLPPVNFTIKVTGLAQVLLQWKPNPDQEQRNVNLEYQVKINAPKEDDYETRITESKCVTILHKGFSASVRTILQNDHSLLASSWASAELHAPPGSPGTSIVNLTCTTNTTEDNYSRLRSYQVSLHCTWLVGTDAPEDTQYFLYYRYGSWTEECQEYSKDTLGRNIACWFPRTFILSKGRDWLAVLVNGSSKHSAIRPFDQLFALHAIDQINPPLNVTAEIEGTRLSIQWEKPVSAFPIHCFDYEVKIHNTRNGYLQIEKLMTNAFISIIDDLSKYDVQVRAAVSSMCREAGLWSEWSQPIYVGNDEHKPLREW
# T5: hCD38-Avi, ADP-ribosyl cyclase/cyclic ADP-ribose hydrolase 1 (Homo sapiens) aa 43-300 (Homo sapiens, UniProt P28907 43-300)
# T5 construct: range 43-300; not shown: Avi tag as the name implies
# T5 sequence (looked up): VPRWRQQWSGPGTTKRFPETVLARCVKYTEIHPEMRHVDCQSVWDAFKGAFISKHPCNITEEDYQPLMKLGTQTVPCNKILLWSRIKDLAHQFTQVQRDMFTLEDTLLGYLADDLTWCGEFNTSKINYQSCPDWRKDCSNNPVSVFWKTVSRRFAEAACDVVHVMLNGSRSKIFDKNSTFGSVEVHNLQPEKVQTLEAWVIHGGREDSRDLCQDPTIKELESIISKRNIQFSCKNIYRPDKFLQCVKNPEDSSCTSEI
# Legend:
# [1] = target: T1, hisOX40, Tumor necrosis factor receptor …; assay: BLI Octet RED 384; antibody on ProA sensor, antigen 30 ug/ml (1310 nM); response at end of association
# Description: (§1) Experimental study of nonspecific binding of bispecific chimeric antibodies to non-target antigens was performed on Forte Bio Octert RED 384. Protein A (ProA) biosensors (ForteBio) were immersed into a solution containing antibodies at a concentration of 10 μg/ml for 150 seconds to immobilize same. The baseline was recorded in a 1×KB solution for 30 seconds. The antibody-loaded sensors were then immersed into wells containing non-target antigens at a concentration of 30 μg/ml for 150 seconds. Complex dissociation was then recorded for 30 seconds.
# (§2) The reference sensors went through all the steps as the sensors used to record analyte sensograms did, with the exception of the association step—at the association step, the sensors were immersed in a kinetic buffer solution without analyte (the reference sensor signals were measured in parallel with the recording of the main sensograms). The reference signal was subtracted from the signal received on sensors interacting with the analyte during the processing of sensograms.
# (§3) Sensograms were processed using ForteBio Octet Data Analysisn 9.0 software. To report no non-specific interaction, the recorded signal level was checked at the end of the association step (the response parameter).
# [2] = target: T6, extracellular domain of the human PD-1 protein (hPD1ex-H6F) (Homo sapiens, UniProt Q15116 21-170); assay: BLI Octet RED 384; antibody on ProA sensor, antigen 30 ug/ml (1456 nM); response at end of association
# T6 construct: Molecular weight 20.6 kDa; made in CHO cells; also called hPDlex-H6F; not shown: C-terminal His and FLAG tags
# Description: as §1, §2, §3
# [3] = target: T2, C-Avi-His-TEVs-HSA_hBCMA, Tumor …; assay: BLI Octet RED 384; antibody on ProA sensor, antigen 30 ug/ml (391.2 nM); response at end of association
# Description: as §1, §2, §3
# [4] = target: T7, Her3-H6F, Receptor tyrosine-protein kinase erbB-3 (Homo sapiens) aa 21-643 (Homo sapiens, UniProt P21860 21-643); assay: BLI Octet RED 384; antibody on ProA sensor, antigen 30 ug/ml (420.8 nM); response at end of association
# T7 construct: not shown: His and FLAG tags implied by the name 'H6F'
# Description: as §1, §2, §3
# [5] = target: T3, hAng2_H6F, Angiopoietin-2 (Homo …); assay: BLI Octet RED 384; antibody on ProA sensor, antigen 30 ug/ml (510.2 nM); response at end of association
# Description: as §1, §2, §3
# [6] = target: T8, Macaca CSF1R_C-His, Macrophage colony-stimulating factor 1 receptor (Macaca mulatta) aa 20-513 (Macaca mulatta); assay: BLI Octet RED 384; antibody on ProA sensor, antigen 30 ug/ml (534.8 nM); response at end of association
# T8 construct: range 20-513
# Description: as §1, §2, §3
# [7] = target: T4, IL5R-His, Interleukin-5 receptor …; assay: BLI Octet RED 384; antibody on ProA sensor, antigen 30 ug/ml (757.6 nM); response at end of association
# Description: as §1, §2, §3
# [8] = target: T5, hCD38-Avi, ADP-ribosyl cyclase/cyclic …; assay: BLI Octet RED 384; antibody on ProA sensor, antigen 30 ug/ml (854.7 nM); response at end of association
# Description: as §1, §2, §3
# T7 sequence (P21860 21-643 limits assumed): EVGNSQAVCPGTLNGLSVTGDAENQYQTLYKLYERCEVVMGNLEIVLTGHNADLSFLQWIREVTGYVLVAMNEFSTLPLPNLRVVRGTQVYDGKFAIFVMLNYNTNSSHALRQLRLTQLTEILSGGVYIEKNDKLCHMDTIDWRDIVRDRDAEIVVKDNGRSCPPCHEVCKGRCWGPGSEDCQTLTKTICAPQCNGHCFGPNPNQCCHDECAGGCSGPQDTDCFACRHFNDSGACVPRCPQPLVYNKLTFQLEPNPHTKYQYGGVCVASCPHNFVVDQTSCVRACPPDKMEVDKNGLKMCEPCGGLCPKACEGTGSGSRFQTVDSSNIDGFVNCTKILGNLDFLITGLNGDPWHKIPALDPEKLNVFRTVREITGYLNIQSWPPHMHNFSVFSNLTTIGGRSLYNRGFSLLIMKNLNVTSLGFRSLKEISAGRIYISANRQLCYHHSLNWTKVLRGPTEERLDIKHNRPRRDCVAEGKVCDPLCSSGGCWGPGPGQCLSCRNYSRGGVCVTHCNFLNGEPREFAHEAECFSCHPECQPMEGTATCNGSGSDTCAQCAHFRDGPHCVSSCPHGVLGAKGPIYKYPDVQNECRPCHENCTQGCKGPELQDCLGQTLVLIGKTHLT
# T6 sequence (Q15116 21-170 limits assumed, form in doubt): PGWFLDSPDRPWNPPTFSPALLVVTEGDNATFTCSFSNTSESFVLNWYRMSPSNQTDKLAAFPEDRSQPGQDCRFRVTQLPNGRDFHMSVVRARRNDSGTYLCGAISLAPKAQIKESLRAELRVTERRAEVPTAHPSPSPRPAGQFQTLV
Signal level (nm) [2],Signal level (nm) [4],Signal level (nm) [5],Signal level (nm) [6],Signal level (nm) [7],Signal level (nm) [8],Binder,Signal level (nm) [1],Signal level (nm) [3]
0.172 nm,-0.0063 nm,-0.0079 nm,0.535 nm,0.0221 nm,0.0088 nm,"02-007, bivalent bispecific chimeric antibody that specifically binds to PD1 and CSF1R (bispecific antibody, human IgG1, kappa, L234A L235A, Produced in CHO cells) heavy 1: QVQLVESGGGLVRPGGSLRLSCAASEFTFDDYAMSWVRQAPGKGLEWVSAISWNGGSTNYADSVKGRFTISRDNAKNSLYLQMNSLRAEDTALYYCASTVEVAHRRLYKYLEVWGQGTLVTVSSASTKGPSVFPLAPSSKSTSGGTAALGCLVKDYFPEPVTVSWNSGALTSGVHTFPAVLQSSGLYSLSSVVTVPSSSLGTQTYICNVNHKPSNTKVDKRVEPKSCDKTHTCPPCPAPEAAGGPSVFLFPPKPKDTLYITREPEVTCVVVDVSHEDPEVKFNWYVDGVEVHNAKTKPREEQYNSTYRVVSVLTVLHQDWLNGKEYKCKVSNKALPAPIEKTISKAKGQPREPQVCTLPPSRDELTKNQVSLSCAVKGFYPSDIAVEWESNGQPENNYKTTPPVLDSDGSFFLVSKLTVDKSRWQQGNVFSCSVMHEALHNHYTQKSLSLSPGK light 1: QAGLTQPPSVSVAPGQTARITCGGNNIGSKSVHWYQQKPGQAPVLVVYGDSDRPSGIPERFSGSNSGNTATLTISRVEAGDEADYYCQVWDISSDHVVFGGGTQLTVLRTVAAPSVFIFPPSDEQLKSGTASVVCLLNNFYPREAKVQWKVDNALQSGNSQESVTEQDSKDSTYSLSSTLTLSKADYEKHKVYACEVTHQGLSSPVTKSFNRGEC heavy 2: not shown light 2: QPVLTQPLSVSVALGQTARITCGGNNIGSKNVHWYQQKPGQAPVLVIYRDSNRPSGIPERFSGSNSGNTATLTISRAQAGDEADYYCQVWDSSTAVFGTGTKLTVLQQRQVKPEAWLSSGPSPGPGRLQLVCHVSGFYPKPVWVMWMRGEQEQQGTQLGDILPNANWTWYLRATLDVADGEAAGLSCRVKHSSLEGQDIILYWRGSC",-0.0056 nm,0.0061 nm
0.144 nm,-0.0115 nm,-0.0239 nm,0.587 nm,0.0153 nm,0.0158 nm,"02-006, bivalent bispecific chimeric antibody that specifically binds to PD1 and CSF1R (bispecific antibody, human IgG1, kappa, L234A L235A, Produced in CHO cells) heavy 1: QVQLVQSGGGLVQPGGSLRLSCAASGFTFSSYWMYWVRQVPGKGLEWVSAIDTGGGRTYYADSVKGRFAISRVNAKNTMYLQMNSLRAEDTAVYYCARDEGGGTGWGVLKDWPYGLDAWGQGTLVTVSSASTKGPSVFPLAPSSKSTSGGTAALGCLVKDYFPEPVTVSWNSGALTSGVHTFPAVLQSSGLYSLSSVVTVPSSSLGTQTYICNVNHKPSNTKVDKRVEPKSCDKTHTCPPCPAPEAAGGPSVFLFPPKPKDTLYITREPEVTCVVVDVSHEDPEVKFNWYVDGVEVHNAKTKPREEQYNSTYRVVSVLTVLHQDWLNGKEYKCKVSNKALPAPIEKTISKAKGQPREPQVCTLPPSRDELTKNQVSLSCAVKGFYPSDIAVEWESNGQPENNYKTTPPVLDSDGSFFLVSKLTVDKSRWQQGNVFSCSVMHEALHNHYTQKSLSLSPGK light 1: QPVLTQPLSVSVALGQTARITCGGNNIGSKNVHWYQQKPGQAPVLVIYRDSNRPSGIPERFSGSNSGNTATLTISRAQAGDEADYYCQVWDSSTAVFGTGTKLTVLQRTVAAPSVFIFPPSDEQLKSGTASVVCLLNNFYPREAKVQWKVDNALQSGNSQESVTEQDSKDSTYSLSSTLTLSKADYEKHKVYACEVTHQGLSSPVTKSFNRGEC heavy 2: not shown light 2: QAGLTQPPSVSVAPGQTARITCGGNNIGSKSVHWYQQKPGQAPVLVVYGDSDRPSGIPERFSGSNSGNTATLTISRVEAGDEADYYCQVWDISSDHVVFGGGTQLTVLQRQVKPEAWLSSGPSPGPGRLQLVCHVSGFYPKPVWVMWMRGEQEQQGTQLGDILPNANWTWYLRATLDVADGEAAGLSCRVKHSSLEGQDIILYWRGSC",-0.0094 nm,0.0009 nm
-0.0033 nm,-0.0108 nm,-0.0124 nm,0.549 nm,0.0098 nm,0.0028 nm,"02-008, bivalent bispecific chimeric antibody that specifically binds to CD20 and CSF1R (bispecific antibody, human IgG1, kappa, L234A L235A, Produced in CHO cells) heavy 1: EVQLVESGGGLVQPGGSLRLSCAASGYTFTSYNMHWVRQAPGKGLEWVGAIYPGNGDTSYNQKFKGRFTISVDKSKNTLYLQMNSLRAEDTAVYYCARVVYYSNSYWYFDVWGQGTLVTVSSASTKGPSVFPLAPSSKSTSGGTAALGCLVKDYFPEPVTVSWNSGALTSGVHTFPAVLQSSGLYSLSSVVTVPSSSLGTQTYICNVNHKPSNTKVDKRVEPKSCDKTHTCPPCPAPEAAGGPSVFLFPPKPKDTLYITREPEVTCVVVDVSHEDPEVKFNWYVDGVEVHNAKTKPREEQYNSTYRVVSVLTVLHQDWLNGKEYKCKVSNKALPAPIEKTISKAKGQPREPQVCTLPPSRDELTKNQVSLSCAVKGFYPSDIAVEWESNGQPENNYKTTPPVLDSDGSFFLVSKLTVDKSRWQQGNVFSCSVMHEALHNHYTQKSLSLSPGK light 1: DIQMTQSPSSLSASVGDRVTITCRASSSVSYMHWYQQKPGKAPKPLIYAPSNLASGVPSRFSGSGSGTDFTLTISSLQPEDFATYYCQQWSFNPPTFGQGTKVEIKRTVAAPSVFIFPPSDEQLKSGTASVVCLLNNFYPREAKVQWKVDNALQSGNSQESVTEQDSKDSTYSLSSTLTLSKADYEKHKVYACEVTHQGLSSPVTKSFNRGEC heavy 2: not shown light 2: QAGLTQPPSVSVAPGQTARITCGGNNIGSKSVHWYQQKPGQAPVLVVYGDSDRPSGIPERFSGSNSGNTATLTISRVEAGDEADYYCQVWDISSDHVVFGGGTQLTVLQRQVKPEAWLSSGPSPGPGRLQLVCHVSGFYPKPVWVMWMRGEQEQQGTQLGDILPNANWTWYLRATLDVADGEAAGLSCRVKHSSLEGQDIILYWRGSC",-0.012 nm,-0.0023 nm
